The numbers were not newly measured in paper PMC7106946, which cites them from elsewhere.

The term pKa denotes the pH at which an ionisable group is half protonated.

This data set concerns the target Asp46 (UniProt position 303, VILFMDRNLEQ). Nature of the data set: NMR.

For the substance “Hedgehog protein autoprocessing domain (HhC) Hint domain, wild type at position 46 (Drosophila melanogaster)”, the pKa was 5.8.
